Experiment [1] addresses hen egg white lysozyme (hen) (UniProt P00698). Briefly: fluorescence at 535 nm, excitation at 480 nm, lysozyme 10 nM to 2 uM in 50 mM Tris-HCl, 150 mM NaCl, pH 7.5.
For experiment [2] the target is unchanged. Briefly: fluorescence emission, excitation at 469 nm, lysozyme at 100 nM and 1 uM, three preparations.
Experiment [3] shares this target. In words: fluorescence emission after addition of lysozyme, excitation at 469 nm, several preparations.

UniProt P00698, sequence (P00698 19-147 limits assumed): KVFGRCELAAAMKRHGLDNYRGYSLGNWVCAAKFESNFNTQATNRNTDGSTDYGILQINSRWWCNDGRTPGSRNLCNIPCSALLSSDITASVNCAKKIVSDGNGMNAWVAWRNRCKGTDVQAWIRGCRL

B1: scFv-His6(VL-S93ANBD) conjugate (scFv)
scFv: EVKLQESGPGLVAPSQSLSITCTVSGFSLTGYGVNWVRQPPGKGLEWLGMIWGDGNTDYNSALKSRLSISKDNSKSQVFLKMNSLHTDDTARYYCARERDYRLDYWGQGTTVTVSSGGGGSGGGGSGGGGSDIELTQSPASLSASVGETVTITCRASGNIHNYLAWYQQKQGKSPQLLVYYTTTLADGVPSRFSGSGSGTQYSLKINSLQPEDFGSYYCQHFWCTPRTFGGGTKLEIKRPLEHHHHHH
modifications: chain 1 pos 224 (VL Cys93): Cys whose S-gamma is coupled to the fluorophore IANBD (ANBD adduct), written C
With B1, the increase of fluorescence intensity at saturation in experiment [1] came out at 91%. The maximum enhancement of fluorescence in experiment [2] was 27%. This molecule had a fluorescence intensity at saturation relative to the free biosensor in experiment [3] of 1.26 times.
